Source: US20110190477A1 (published 2011)

How the values were obtained:
human C5a receptor [1] = molecular target: T1, human C5a receptor (UniProt P21730 1-350); test: saturation binding to human neutrophils (flow cytometry, MFI); 4 C
T1 chain: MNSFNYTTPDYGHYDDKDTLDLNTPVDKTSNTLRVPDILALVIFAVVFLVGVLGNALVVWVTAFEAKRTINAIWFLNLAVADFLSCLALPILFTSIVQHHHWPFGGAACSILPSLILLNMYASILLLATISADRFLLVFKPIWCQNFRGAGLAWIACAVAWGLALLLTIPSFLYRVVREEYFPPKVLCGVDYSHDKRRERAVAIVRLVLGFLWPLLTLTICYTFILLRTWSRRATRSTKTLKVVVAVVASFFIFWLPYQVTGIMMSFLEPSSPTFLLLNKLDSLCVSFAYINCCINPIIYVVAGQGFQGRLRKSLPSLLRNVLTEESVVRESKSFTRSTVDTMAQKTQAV

human C5a receptor [2] = molecular target: T1, human C5a receptor; test: as above

B1: humanized anti-C5aR antibody hAb-J (antibody)
light: DVVMTQSPLSLPVTLGEPASISCRSSQSLVHSNGNTYLHWYLQKPGQSPQLLIYKVSNRFSGVPDRFSGSGSGTDFTLKISRVEAEDVGVYFCSQSTLVPLTFGQGTKLEIKTVAAPSVFIFPPSDEQLKSGTASVVCLLNNFYPREAKVQWKVDNALQSGNSQESVTEQDSKDSTYSLSSTLTLSKADYEKHKVYACEVTHQGLSSPVTKSFNRGEC
heavy: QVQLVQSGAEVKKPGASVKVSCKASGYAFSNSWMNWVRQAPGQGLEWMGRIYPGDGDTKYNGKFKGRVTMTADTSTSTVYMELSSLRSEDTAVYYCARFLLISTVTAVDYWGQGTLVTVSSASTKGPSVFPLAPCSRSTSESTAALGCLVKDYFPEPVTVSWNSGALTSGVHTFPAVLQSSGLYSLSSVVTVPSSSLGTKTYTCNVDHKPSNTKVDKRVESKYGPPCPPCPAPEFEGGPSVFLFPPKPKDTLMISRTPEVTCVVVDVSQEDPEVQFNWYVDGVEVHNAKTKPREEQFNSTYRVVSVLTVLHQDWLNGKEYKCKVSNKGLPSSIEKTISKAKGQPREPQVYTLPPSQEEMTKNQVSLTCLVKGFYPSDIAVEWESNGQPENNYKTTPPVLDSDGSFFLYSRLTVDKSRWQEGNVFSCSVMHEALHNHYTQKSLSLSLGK
Human C5a receptor [1]
  EC50: 20.1 nM
Human C5a receptor [2]
  Kd: 25.4 nM

B2: humanized anti-C5aR antibody hAb-Q (antibody)
light: DVVMTQSPLSLPVTLGEPASISCRSSQSLVHSNGNTYLHWYLQKPGQSPQLLIYKVSNRFSGVPDRFSGSGSGTDFTLKISRVEAEDVGVYFCSQSTLVPLTFGQGTKLEIKRTVAAPSVFIFPPSDEQLKSGTASVVCLLNNFYPREAKVQWKVDNALQSGNSQESVTEQDSKDSTYSLSSTLTLSKADYEKHKVYACEVTHQGLSSPVTKSFNRGEC
heavy: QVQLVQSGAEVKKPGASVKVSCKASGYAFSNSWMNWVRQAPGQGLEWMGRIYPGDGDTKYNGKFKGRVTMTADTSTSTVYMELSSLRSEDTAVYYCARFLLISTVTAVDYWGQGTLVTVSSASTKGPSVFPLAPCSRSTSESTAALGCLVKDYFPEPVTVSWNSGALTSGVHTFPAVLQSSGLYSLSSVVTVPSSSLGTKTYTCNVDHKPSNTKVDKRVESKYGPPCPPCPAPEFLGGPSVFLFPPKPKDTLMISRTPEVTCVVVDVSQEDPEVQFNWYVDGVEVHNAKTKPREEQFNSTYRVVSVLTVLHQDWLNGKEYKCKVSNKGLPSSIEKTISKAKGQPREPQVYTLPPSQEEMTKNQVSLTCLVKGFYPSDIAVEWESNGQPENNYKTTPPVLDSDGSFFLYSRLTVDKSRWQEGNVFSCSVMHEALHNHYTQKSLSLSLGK
Human C5a receptor [1]
  EC50: 21.6 nM
Human C5a receptor [2]
  Kd: 22.6 nM

B3: mouse anti-C5aR monoclonal antibody 7F3 (antibody, V domains shown)
VH: QVQLQQSGPELVKPGASVKISCKASGYAFSNSWMNWVKQRPGKGLEWIGRIYPGDGDTKYNGKFKGKATLTADKSSSTAYMQLSSLTSEDSAVYFCARFLLISTVTAVDYWGQGTTLTVSS
VL: DVVMTQSPLSLPVSLGNQASISCRSSQSLVHSNGNTYLHWYLQKPGQSPKLLIYKVSNRFSGVPDRFSGSGSGTDFSLKISRVEAEDLGVYFCSQSTLVPLTFGAGTKLELK
Human C5a receptor [1]
  EC50: 8.51 nM
Human C5a receptor [2]
  Kd: 9.2 nM
